# Article doi:10.1101/2023.10.19.563136
# Key:
# [1] = biological target: phosphorylated HemRREC (phospho-receiver domain of HemR) (Leptospira biflexa); assay: SEC
# [2] = biological target: phosphorylated HemRFL (full-length HemR) (Leptospira biflexa); assay: SEC
stoichiometry N [1],stoichiometry N [2],Substance
2,,phosphorylated HemRREC (phospho-receiver domain of HemR) (domain or fragment)
,2,phosphorylated HemRFL (full-length HemR) (natural protein)
